Assay results reported in patent US20190359687A1 (Bayer, published 2019).
Changes are numbered by the printed parent chain. Numbers in names are those of the source. No end group written: not given here.

Assays:
[1] = target: T1, human glycophorin A on human red blood cells or red blood cell membranes (human, UniProt P02724 20-150); test: Fab on intact human RBC, unbound Fab by ELISA; 0 min after 200-fold dilution
T1 construct: whole, on cells; also called hRBC; human RBC membranes
T1 sequence (looked up): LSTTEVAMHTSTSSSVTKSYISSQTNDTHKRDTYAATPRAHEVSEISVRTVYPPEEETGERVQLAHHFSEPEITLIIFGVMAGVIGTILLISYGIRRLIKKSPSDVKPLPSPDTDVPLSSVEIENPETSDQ

[2] = target: T1, human glycophorin A on human red blood …; test: Fab on intact human RBC, unbound Fab by ELISA; 20 min after 200-fold dilution
[3] = target: T2, GP5 peptide of the human GPA ectodomain (human, N-terminal biotin); test: ELISA, Fab 0.5 ug/ml on biotin-peptide on streptavidin plate
T2 construct: Residues 42 to 61 of the human GPA extracellular domain
From the text: (§1) These peptides were attached to the surface of a streptavidin coated plate via a biotin moiety that was present at the N-terminus of each peptide.

[4] = target: T3, GP8 peptide of the human GPA ectodomain (human, not fully specified (N-terminus)); test: as above
T3 peptide: VRTVYPPE
From the text: as §1

[5] = target: T4, GP13 peptide of the human GPA ectodomain (human, not fully specified (N-terminus)); test: as above
T4 peptide: PPEEETGE
From the text: as §1

[6] = target: T5, GP9 peptide of the human GPA ectodomain (human, not fully specified (N-terminus)); test: as above
T5 peptide: RTVYPPEE
From the text: as §1

[7] = target: T6, GP16 peptide of the human GPA ectodomain (human, not fully specified (N-terminus)); test: as above
T6 peptide: EETGERVQ
From the text: as §1

[8] = target: T7, GP7 peptide of the human GPA ectodomain (human, not fully specified (N-terminus)); test: as above
T7 peptide: SVRTVYPP
From the text: as §1

[9] = target: T8, GP11 peptide of the human GPA ectodomain (human, not fully specified (N-terminus)); test: as above
T8 peptide: VYPPEEET
From the text: as §1

[10] = target: T9, GP14 peptide of the human GPA ectodomain (human, not fully specified (N-terminus)); test: as above
T9 peptide: PEEETGER
From the text: as §1

[11] = target: T10, GP15 peptide of the human GPA ectodomain (human, not fully specified (N-terminus)); test: as above
T10 peptide: EEETGERV
From the text: as §1

[12] = target: T1, human glycophorin A on human red blood …; test: Fab on intact human RBC, unbound Fab by ELISA; 5 min after 200-fold dilution
[13] = target: T1, human glycophorin A on human red blood …; test: SPR (Biacore), Fab on human RBC membranes;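 further: human RBC membranes captured on an L1 sensor chip, Fab fragments passed over as analyte, binding kinetics read by surface plasmon resonance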
Method: Kinetic analysis of the antibody binding to human red blood cell membranes was also performed using surface plasmon resonance (SPR) using a Biacore instrument. In this assay membranes prepared from human red blood cells were attached to a L1 sensor matrix and antibodies were flowed over the RBC membranes.
The binding kinetics of the affinity matured Fab antibodies was also measured.

[14] = target: T1, human glycophorin A on human red blood …; test: Fab 7 ug/ml on intact human RBC, unbound Fab by ELISA; pre-dilution
Method: (§2) The binding of affinity matured Fab antibodies to intact human RBC was also measured. Human RBC were isolated from fresh anti-coagulated normal human blood by centrifugation through a ficol gradient and washing in PBS buffer. RBC diluted to 1/10th of normal hematocrit were incubated with purified Fab antibodies at a final concentration of 7 ug/ml for 1 hour at room temperature on a rotating shaker after which a sample was taken and the RBC were pelleted by centrifugation and the supernatant was collected. The remaining RBC suspension was diluted 200-fold in PBS buffer and incubated for a total of 2 hours at room temperature on a rotating shaker and samples were removed at 0, 5 min, 20 min, 1 h and 2 h and the RBC pelleted and the supernatant collected. The amount of Fab in the supernatants was then measured using an ELISA assay and the results used to calculate the percentage of the input Fab that was bound to the RBC. […] The percentage that remains bound after 200-fold dilution of the RBC suspension is an indication of the overall strength of the binding to human RBC.

[15] = target: T11, GP10 peptide of the human GPA ectodomain (human, not fully specified (N-terminus)); test: ELISA, Fab 0.05 ug/ml on biotin-peptide on streptavidin plate
T11 peptide: TVYPPEEE
From the text: as §1

[16] = target: T2, GP5 peptide of the human GPA ectodomain; test: as above
From the text: as §1

[17] = target: T12, GP12 peptide of the human GPA ectodomain (human, not fully specified (N-terminus)); test: as above
T12 peptide: YPPEEETG
From the text: as §1

[18] = target: T3, GP8 peptide of the human GPA ectodomain; test: as above
From the text: as §1

[19] = target: T4, GP13 peptide of the human GPA ectodomain; test: as above
From the text: as §1

[20] = target: T5, GP9 peptide of the human GPA ectodomain; test: as above
From the text: as §1

[21] = target: T6, GP16 peptide of the human GPA ectodomain; test: as above
From the text: as §1

[22] = target: T7, GP7 peptide of the human GPA ectodomain; test: as above
From the text: as §1

[23] = target: T8, GP11 peptide of the human GPA ectodomain; test: as above
From the text: as §1

[24] = target: T9, GP14 peptide of the human GPA ectodomain; test: as above
From the text: as §1

[25] = target: T10, GP15 peptide of the human GPA ectodomain; test: as above
From the text: as §1

[26] = target: T1, human glycophorin A on human red blood …; test: Fab on intact human RBC, unbound Fab by ELISA; 60 min after 200-fold dilution
Method: as §2

[27] = target: T1, human glycophorin A on human red blood …; test: Fab on intact human RBC, unbound Fab by ELISA; 120 min after 200-fold dilution
Method: as §2

B1: TPP-7790, affinity matured 6C12 Fab (Fab, V domains shown)
VH: EVQLVQSGAEVKKPGASVKVSCKASGYTFTTYAIHWVRQAPGQGLEWMGYINPSSGYTRYNPKFKHRVTMTRDKSTSTAYMELRSLRSDDTAVYYCWTGTRDYWGQGTTVTVSS
VL: DIQLTQSPSFLSASVGDRVTITCRASSSVRYIYWFQQKPGKAPKLLIYATSFLQSGVPSRFSGSGSGTEYTLTISSLQPEDFATYYCHQRNSFPYTFGQGTKLEIK
notes: Tested as Fab with a 6xHIS tag
percentage of input antibody bound [1]: 88% | percentage of input antibody bound [2]: 88% | binding signal in ELISA (relative light units) [3]: 6990 RLU | binding signal in ELISA (relative light units) [4]: 3370 RLU | binding signal in ELISA (relative light units) [5]: -1 RLU | binding signal in ELISA (relative light units) [6]: 169 RLU | binding signal in ELISA (relative light units) [7]: 0 RLU | binding signal in ELISA (relative light units) [8]: 1 RLU | binding signal in ELISA (relative light units) [9]: 1 RLU | binding signal in ELISA (relative light units) [10]: 0 RLU | binding signal in ELISA (relative light units) [11]: 0 RLU | percentage of input antibody bound [12]: 89% | kon [13]: 8.58e+06 M⁻¹ s⁻¹ | percentage of input antibody bound [14]: 91% | binding signal in ELISA (relative light units) [15]: 7 RLU | binding signal in ELISA (relative light units) [16]: 2880 RLU | binding signal in ELISA (relative light units) [17]: -1 RLU | binding signal in ELISA (relative light units) [18]: 83 RLU | binding signal in ELISA (relative light units) [19]: 0 RLU | binding signal in ELISA (relative light units) [20]: 7 RLU | binding signal in ELISA (relative light units) [21]: -1 RLU | binding signal in ELISA (relative light units) [22]: 0 RLU | binding signal in ELISA (relative light units) [23]: 0 RLU | binding signal in ELISA (relative light units) [24]: -1 RLU | binding signal in ELISA (relative light units) [25]: -1 RLU | percentage of input antibody bound [26]: 87% | percentage of input antibody bound [27]: 88%

B2: TPP-5906, humanized and germlined 6C12 Fab; VL: (S24R, A26S, S49A, P54Q, F95Y); VH: (I48M, D56G, D66G, L70M, T72R) (Fab, V domains shown)
VH: B1 VH with A33T, H66G, W97Q
VL: DIQLTQSPSFLSASVGDRVTITCRASSSVSYIYWFQQKPGKAPKLLIYATSTLQSGVPSRFSGSGSGTEYTLTISSLQPEDFATYYCHQRNSFPYTFGQGTKLEIKR
notes: The text says that a 6xHIS tag is present on the Fabs in the peptide ELISA; it is not in the printed chains
percentage of input antibody bound [1]: 82% | percentage of input antibody bound [2]: 4% | binding signal in ELISA (relative light units) [3]: 6680 RLU | binding signal in ELISA (relative light units) [4]: 1 RLU | binding signal in ELISA (relative light units) [5]: -1 RLU | binding signal in ELISA (relative light units) [6]: 1 RLU | binding signal in ELISA (relative light units) [7]: -1 RLU | binding signal in ELISA (relative light units) [8]: 0 RLU | binding signal in ELISA (relative light units) [9]: 0 RLU | binding signal in ELISA (relative light units) [10]: -1 RLU | binding signal in ELISA (relative light units) [11]: -1 RLU | percentage of input antibody bound [12]: 28% | Kd [13]: 0.707 nM | koff [13]: 0.00504 s⁻¹ | kon [13]: 7.14e+06 M⁻¹ s⁻¹ | percentage of input antibody bound [14]: 93% | binding signal in ELISA (relative light units) [15]: 0 RLU | binding signal in ELISA (relative light units) [16]: 2000 RLU | binding signal in ELISA (relative light units) [17]: -1 RLU | binding signal in ELISA (relative light units) [18]: -1 RLU | binding signal in ELISA (relative light units) [19]: -1 RLU | binding signal in ELISA (relative light units) [20]: -1 RLU | binding signal in ELISA (relative light units) [21]: 0 RLU | binding signal in ELISA (relative light units) [22]: -1 RLU | binding signal in ELISA (relative light units) [23]: -1 RLU | binding signal in ELISA (relative light units) [24]: -1 RLU | binding signal in ELISA (relative light units) [25]: -1 RLU | percentage of input antibody bound [26]: 8% | percentage of input antibody bound [27]: 8%
